In test [1] the target is Cyno MUC1 (full length), on cells (cyno). Briefly: flow cytometry on HEK293/cyno MUC1 cells. Background: Flow cytometry measures light scatter and fluorescence of single cells or particles in a stream.
Test [2] addresses MUC1 as expressed on normal activated human T cells (human) (UniProt P15941). Briefly: FACS, PHA-L-activated human PBMC, live αβTCR+ gate, Donor 190980805C; antibody 10 µg/mL by paragraph 182.
The target is the same in test [3]. The test can be described thus: FACS, PHA-L-activated human PBMC, live αβTCR+ gate, Donor 191180405C; antibody 10 µg/mL by paragraph 182.

Sequence of Cyno MUC1 (full length), on cells (cyno) (chain, as listed by the source limits assumed, form in doubt): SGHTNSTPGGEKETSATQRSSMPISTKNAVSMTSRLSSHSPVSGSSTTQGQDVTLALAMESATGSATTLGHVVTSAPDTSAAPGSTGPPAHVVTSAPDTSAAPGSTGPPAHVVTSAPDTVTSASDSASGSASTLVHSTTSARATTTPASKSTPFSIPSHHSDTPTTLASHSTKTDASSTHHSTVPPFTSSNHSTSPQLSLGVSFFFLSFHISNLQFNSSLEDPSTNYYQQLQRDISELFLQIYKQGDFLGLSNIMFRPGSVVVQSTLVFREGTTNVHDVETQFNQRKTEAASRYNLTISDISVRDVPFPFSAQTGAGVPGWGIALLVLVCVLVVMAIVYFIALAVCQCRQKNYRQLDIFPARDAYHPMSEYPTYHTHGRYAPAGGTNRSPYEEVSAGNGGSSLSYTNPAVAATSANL
Sequence of MUC1 as expressed on normal activated human T cells (human) (P15941 24-1255): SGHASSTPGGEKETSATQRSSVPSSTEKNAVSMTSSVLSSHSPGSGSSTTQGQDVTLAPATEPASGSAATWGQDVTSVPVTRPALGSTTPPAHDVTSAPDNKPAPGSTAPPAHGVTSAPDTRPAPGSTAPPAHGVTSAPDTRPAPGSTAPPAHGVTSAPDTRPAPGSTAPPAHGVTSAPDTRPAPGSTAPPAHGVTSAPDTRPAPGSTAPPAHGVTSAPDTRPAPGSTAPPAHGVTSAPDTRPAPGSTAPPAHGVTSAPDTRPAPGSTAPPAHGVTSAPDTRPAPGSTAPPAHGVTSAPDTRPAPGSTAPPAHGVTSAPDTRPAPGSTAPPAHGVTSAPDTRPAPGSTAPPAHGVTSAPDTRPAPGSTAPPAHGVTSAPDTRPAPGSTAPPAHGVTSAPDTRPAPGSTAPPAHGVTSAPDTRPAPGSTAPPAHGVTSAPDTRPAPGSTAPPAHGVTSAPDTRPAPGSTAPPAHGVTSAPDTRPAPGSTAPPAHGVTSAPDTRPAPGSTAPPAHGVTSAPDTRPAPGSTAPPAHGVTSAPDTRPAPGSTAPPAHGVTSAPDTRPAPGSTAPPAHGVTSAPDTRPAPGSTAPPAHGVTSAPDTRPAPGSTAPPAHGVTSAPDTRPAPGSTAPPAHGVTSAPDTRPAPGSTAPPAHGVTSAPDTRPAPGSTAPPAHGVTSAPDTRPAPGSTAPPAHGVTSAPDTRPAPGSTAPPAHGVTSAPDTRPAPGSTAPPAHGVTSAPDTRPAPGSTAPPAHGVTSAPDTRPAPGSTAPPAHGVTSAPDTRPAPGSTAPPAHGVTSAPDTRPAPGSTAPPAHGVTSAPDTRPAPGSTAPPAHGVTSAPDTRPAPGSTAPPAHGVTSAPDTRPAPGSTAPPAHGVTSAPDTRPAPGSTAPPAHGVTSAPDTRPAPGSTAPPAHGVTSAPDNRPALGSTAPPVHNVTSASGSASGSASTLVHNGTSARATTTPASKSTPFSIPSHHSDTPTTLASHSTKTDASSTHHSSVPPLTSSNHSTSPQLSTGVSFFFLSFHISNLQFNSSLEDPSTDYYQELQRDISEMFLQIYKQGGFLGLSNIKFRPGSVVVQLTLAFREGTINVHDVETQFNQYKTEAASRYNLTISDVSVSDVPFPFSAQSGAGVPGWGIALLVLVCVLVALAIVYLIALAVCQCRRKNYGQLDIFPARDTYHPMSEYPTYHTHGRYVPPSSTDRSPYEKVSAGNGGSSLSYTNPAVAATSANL

B1: chBG346P (antibody, V domains shown)
VH: EVQLQQSGAELVKPGASVKISCKASGYTFTNYWMNWVRQRPGQGLEWIGEIDPSDSYTNNNQKFKDKATLTVDKSSSTAYMQLSSLTSEDSAVYYCARGRRTGFAYWGQGTLVTVSS
VL: DIQMTQSPASLSVSVGETVTITCRASENIYSNLAWYQKKQGKSPQLLVYAATNLADGVPSRFSGSGSGTQYSLKINSLQSEDFGNYYCQHFWGTPYTFGGGTKLEIK
As for B1, the EC50 (commonly the concentration giving half of the maximal effect) in test [1] came to 41.8 nM.

B2: chBG138P (antibody, V domains shown)
VH: QVQLLQSGAELARPGASVKMSCKASGYTFTTYTMHWIKQRPGQGLEWIGYINPGSDYTHYNQKFKDKATLTADKSSSTAYMHLYSLTSEDSAVYYCARQGNYAAYYFDYWGQGTTLTVSS
VL: DIQMTQSPASLSASVGETVTITCRASGNIHNFLVWYQQKQGKSPQLLVYNAKTLTDGVPSRFSGSGSGTQYSLKIKSLQPEDFGTYYCQNFWNVPFTFGSGTKLEIK
As for B2, in test [1], the half-maximal effective concentration (EC50) was determined as 7.55 nM.

B3: huBG138P-Hz4 (antibody, from another filing, V domains shown)
VH: QVQLVQSGAEVKKPGASVKVSCKASGYTFTTYTMHWVRQAPGQGLEWMGYINPGSDYTHYNQKFKDRVTITADKSASTAYMELSSLRSEDTAVYYCARQGNYAAYYFDYWGQGTLVTVSS
VL: DIQMTQSPSSLSASVGDRVTITCRASGNIHNFLVWYQQKPGKSPKLLIYNAKTLTSGVPSRFSGSGSGTQYTLTISSLQPEDVATYYCQNFWNVPFTFGQGTKLEIK
For the molecule B3, the percent of αβTCR+ cells in the MUC1-positive gate (dashed box) in test [2] came to 2.4%; in test [3], 2.3%.

B4: chBG219P (antibody, V domains shown)
VH: EVQLVESGGGLVKPGGSLKLSCAASGFTFNDYIMSWVRQTPEKRLEWVATVSSGGDNTYYPDSVKGRFTISRDNAKNNLYLQMSSLRSEDTALYYCTRYGGLGAMDYWGQGTSVTVSS
VL: DIVMTQSPASLSASVGETVTITCRASGNIHNYLTWYQQKQGKSPQLLVYNAKTLADGVPSRFSGSGSGPQYSLKINSLQPEDFGSYYCQHFWSVPYTFGGGTRLEIK
In turn, B4 came in with an EC50 in test [1] of 12.7 nM. This counts as double-digit nanomolar.

The values are drawn from patent US20250075002A1.
